Source: PMC5700975 (2017)

B1: Myc3-iSH2-p110β (wild type) [bovine | human] / GST-Rab5 wild-type [canine] (parent complex)
chain 1: LYEDYTRTSQEIQMKRTAIEAFNETIKIFEEQCQTQERYSKEYIEKFKREGNETEIQRIMHNYEKLKSRISEIVDSRRRLEEDLKKQAAEYREIDKRMNSIKGGGGGGGMCFSFIMPPAMADILDIWAVDSQIASDGSIPVDFLLPTGIYIQLEVPREATISYIKQMLWKQVHNYPMFNLLMDIDSYMFACVNQTAVYEELEDETRRLCDVRPFLPVLKLVTRSCDPGEKLDSKIGVLIGKGLHEFDSLKDPEVNEFRRKMRKFSEEKILSLVGLSWMDWLKQTYPPEHEPSIPENLEDKLYGGKLIVAVHFENCQDVFSFQVSPNMNPIKVNELAIQKRLTIHGKEDEVSPYDYVLQVSGRVEYVFGDHPLIQFQYIRNCVMNRALPHFILVECCKIKKMYEQEMIAIEAAINRNSSNLPLPLPPKKTRIISHVWENNNPFQIVLVKGNKLNTEETVKVHVRAGLFHGTELLCKTIVSSEVSGKNDHIWNEPLEFDINICDLPRMARLCFAVYAVLDKVKTKKSTKTINPSKYQTIRKAGKVHYPVAWVNTMVFDFKGQLRTGDIILHSWSSFPDELEEMLNPMGTVQTNPYTENATALHVKFPENKKQPYYYPPFDKIIEKAAEIASSDSANVSSRGGKKFLPVLKEILDRDPLSQLCENEMDLIWTLRQDCREIFPQSLPKLLLSIKWNKLEDVAQLQALLQIWPKLPPREALELLDFNYPDQYVREYAVGCLRQMSDEELSQYLLQLVQVLKYEPFLDCALSRFLLERALGNRRIGQFLFWHLRSEVHIPAVSVQFGVILEAYCRGSVGHMKVLSKQVEALNKLKTLNSLIKLNAVKLNRAKGKEAMHTCLKQSAYREALSDLQSPLNPCVILSELYVEKCKYMDSKMKPLWLVYNNKVFGEDSVGVIFKNGDDLRQDMLTLQMLRLMDLLWKEAGLDLRMLPYGCLATGDRSGLIEVVSTSETIADIQLNSSNVAAAAAFNKDALLNWLKEYNSGDDLDRAIEEFTLSCAGYCVASYVLGIGDRHSDNIMVKKTGQLFHIDFGHILGNFKSKFGIKRERVPFILTYDFIHVIQQGKTGNTEKFGRFRQCCEDAYLILRRHGNLFITLFALMLTAGLPELTSVKDIQYLKDSLALGKSEEEALKQFKQKFDEALRESWTTKVNWMAHTVRKDYRS
chain 2: ANRGATRPNGPNTGNKICQFKLVLLGESAVGKSSLVLRFVKGQFHEFQESTIGAAFLTQTVCLDDTTVKFEIWDTAGQERYHSLAPMYYRGAQAAIVVYDITNEESFARAKNWVKELQRQASPNIVIALSGNKADLANKRAVDFQEAQSYADDNSLLFMETSAKTSMNVNEIFMAIAKKLPKNEPQNPGANSARGRGVDLTEPTQPTRSQCCSN

Variants of: B1
Test: GST pull-down, anti-Myc immunoblot quantification; GST-Rab5 fusion proteins (10 µg) on glutathione Sepharose beads, GppCp-loaded; Myc-iSH2-p110β from transfected COS-1 lysates; parent: 100; read off a plot
With chain 2 E46A the percent of parent was roughly 72 % WT. For chain 2 Y81A, the percent of parent was roughly 8 % WT. Work on chain 2 F56A yielded a percent of parent of roughly 24 % WT. With chain 2 R90E the percent of parent was roughly 20 % WT. For chain 2 I52A, the percent of parent was roughly 7 % WT. For chain 2 H45A, the percent of parent was roughly 110 % WT. Work on chain 2 W73A yielded a percent of parent of roughly 26 % WT. In the case of chain 2 Q43E, the percent of parent is reported as roughly 115 % WT. For chain 2 Y88A, the percent of parent was roughly 15 % WT. Variant chain 2 S83A has a percent of parent of roughly 112 % WT. For chain 2 H82E, the percent of parent was roughly 12 % WT. chain 2 L84A showed a percent of parent of roughly 16 % WT. In the case of chain 2 R80E, the percent of parent is reported as roughly 23 % WT.

Variants of: B1
Test: GST pull-down, anti-Myc immunoblot quantification; GST-Rab5 loaded with GppCp; parent: 100; read off a plot
Work on chain 1 Y353A yielded a percent of parent of roughly 7 % WT. Variant chain 1 D348R has a percent of parent of roughly 190 % WT. Variant chain 1 L341A has a percent of parent of roughly 117 % WT.
